Data reported in article PMC6395372, “Myosin Va interacts with the exosomal protein spermine synthase” (Bioscience Reports, 2019).

Legend:
[1] = biological target: the molecule itself; assay: SEC; Superdex 75 pg 16/600, 20 mM HEPES, 150 mM NaCl, 5% glycerol, pH 7.4; SMS dimers at Ve ~70 mL
[2] = biological target: T1, MyoVa-GTD, wild type (globular tail domain of myosin Va) (human, UniProt Q9Y4I1 1448-1855); assay: MST; Monolith NT.115, LED power 40%, MST power 60%; 50 nM His-tagged SMS labelled with RED-tris-NTA, serial dilution of MyoVa-GTD; 20 mM HEPES, 150 mM NaCl, 5% glycerol, pH 7.4; triplicate; Hill fit; conditions: both partners purified
T1 construct: Myosin Va, human, wild-type globular tail domain; limits are printed only for the EE two-hybrid construct (1448-1855 of NP_000250.3); In pET28a-TEV; Limits probably 1448-1855 as for the EE construct; also called TEV-treated MyoVa-GTD; source: E. coli BL21(DE3)∆SlyD pRARE2, purified (HiTrap Chelating, TEV cleavage, Superdex 200)
T1 sequence (Q9Y4I1 1448-1855): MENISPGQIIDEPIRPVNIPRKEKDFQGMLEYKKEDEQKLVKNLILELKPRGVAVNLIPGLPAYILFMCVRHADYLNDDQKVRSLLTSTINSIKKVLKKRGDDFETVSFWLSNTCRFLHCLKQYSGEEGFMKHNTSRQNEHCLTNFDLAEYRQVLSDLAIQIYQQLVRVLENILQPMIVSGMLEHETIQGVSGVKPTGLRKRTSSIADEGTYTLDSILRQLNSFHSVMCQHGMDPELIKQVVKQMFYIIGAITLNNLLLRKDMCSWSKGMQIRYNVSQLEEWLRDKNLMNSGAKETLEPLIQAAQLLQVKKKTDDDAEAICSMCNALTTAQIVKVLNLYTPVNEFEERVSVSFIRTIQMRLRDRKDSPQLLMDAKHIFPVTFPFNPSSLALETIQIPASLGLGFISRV

B1: Spermine synthase (SMS), full length, His-tagged (enzyme, human, UniProt P52788-1 1-366, looked up)
chain: MAAARHSTLDFMLGAKADGETILKGLQSIFQEQGMAESVHTWQDHGYLATYTNKNGSFANLRIYPHGLVLLDLQSYDGDAQGKEEIDSILNKVEERMKELSQDSTGRVKRLPPIVRGGAIDRYWPTADGRLVEYDIDEVVYDEDSPYQNIKILHSKQFGNILILSGDVNLAESDLAYTRAIMGSGKEDYTGKDVLILGGGDGGILCEIVKLKPKMVTMVEIDQMVIDGCKKYMRKTCGDVLDNLKGDCYQVLIEDCIPVLKRYAKEGREFDYVINDLTAVPISTSPEEDSTWEFLRLILDLSMKVLKQDGKYFTQGNCVNLTEALSLYEEQLGRLYCPVEFSKEIVCVPSYLELWVFYTVWKKAKP
modifications: RED-tris-NTA dye label on the His-tag (in the MST assay)
notes: Spermine synthase, human, full-length ORF (NM_004595.4, 253-1353 pb) amplified from a human cDNA library; In pET28a-TEV; the fractions with SMS dimers were used in MST; also called 6xHis-SMS; His-tagged-labeled-SMS; source: E. coli BL21(DE3)∆SlyD pRARE2, purified (HiTrap Chelating, Superdex 75)
[1]
  stoichiometry N: 2
[2]
  Kd: 3.5 ± 0.5 µM
